These are literature values, as cited in publication PMC11045845 (Nature Communications, 2024).

For data set [1] the following is noted: glycerylmonooleate BLMs. From the text: For further support, single-channel proton conductance measurements would be desirable but cannot be performed at physiological conditions owing to orders of magnitudes too small proton concentrations.
For data set [2] the following is noted: literature values for comparison. The procedure: Upon increasing the lipid concentration, the intensity at the emission maximum increased and the position of the maximum was blue-shifted to lower wavelengths. A maximum blue shift of (18 ± 2) nm in the presence of 2 mM POPC was determined (Fig. 2a, blue curve, Fig. 2b), accompanied by an increase in the maximum fluorescence intensity (Fig. 2a, c). The observed blue shift indicates the partitioning of the L-trypt ...

No end group written: not given here.

In the case of gramicidin A, in data set [1], the “single-channel conductance GK+” value is on record as “≈ 29 pS”.

Turning to “cecropin A (KWKLFKKIEKVGQNIRDGIIKAGPAVAVVGQATQIAK; ends and bridges not checked; UniProt P01507 27-63, looked up) [antimicrobial peptide]”, the blue shift in data set [2] is reported as 15 nm.

In the case of melittin, in data set [2], the blue shift result is reported as “around 20 nm”.
